Laboratory results: the supplement of paper PMC9170038

Tested on: K4 kissing-loop RNA reporter
Experiment: apparent KD of K4 kissing-loop reporter; higher = weaker reporter binding
Settings: Eterna round: R107
Protocol: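 RNA-MaP round R107: designed RNA switches with theophylline, tryptophan, arginine or FMN aptamers are transcribed on-chip within common flanks. They are titrated with a labelled K4 kissing-loop RNA reporter in RNA-MaP buffer (100 mM Tris pH 7.5, 80 mM KCl, 4 mM MgCl2), without ligand or with the indicated ligand. Median apparent KD per design.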

[1] = input ligand: theophylline 20 uM
[2] = input ligand: tryptophan 2.4 mM
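Note: bound reporter read as fluorescence of individual clusters on recovered sequencing chips by microscopy, with normalized cluster intensities fitted with a binding model.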

| Sequence | apparent KD of K4 kissing-loop reporter (input ligand: FMN 200 uM) | apparent KD of K4 kissing-loop reporter (input ligand: arginine 13.2 mM) | apparent KD of K4 kissing-loop reporter (input ligand: none) | apparent KD of K4 kissing-loop reporter [1] | apparent KD of K4 kissing-loop reporter [2] |
| --- | --- | --- | --- | --- | --- |
| CACUCGGUAUCAGAUACCAGACUAACGAUACCGAGUGUAUCGGGUAGUGAUGUUACCAUAGUCCCUUGGCAGCUGAUAUUCCCUA [Theo B SS t9a] | 252 nM | 203 nM | 258 nM | 210 nM | 199 nM |
| CAUACGAAGCAGUGAUGUUGCUUAUGAGAAGGAGCGCACGAAAGUGCAGGUAGGUCGCUCAGCCAUGUGGACGAAAACGUCCACA [whbob_SS_Arginine_A_sa112] | 266 nM | 273 nM | 276 nM | 265 nM | 269 nM |
| CAUACGCAUGGAGGAUAUGAGAUUACUCAUAUUACCCUGUAACAGGUAUCUCAGUGAUGUUGAGACUCAGAAGGCCAUGUGUAUG [Ex FMN B 22] | 713 nM | 354 nM | 415 nM | 435 nM | 387 nM |
| CAUACGCAUGGAGGAUAUGAGAUUUCUCAUAUUAUUUAAUAUUCUCAGUGAUGUUGAGAAAUAAACUCAGAAGGCCAUGUGUAUG [Ex FMN B 3] | 256 nM | 365 nM | 313 nM | 405 nM | 304 nM |
| CAUGGAGUGAUGCUCCAUGGUCGGGCUUGGCAGGAUAUGGGAUCUUCCAGAAGGGCCGAUCCCGGCGAGUGAUGUUCGCUGGUCU [Exclusion FMN A GF 28] | 167 nM | 332 nM | 316 nM | 433 nM | 271 nM |
| CAUUCGAAAUGCAGUGAUGUUGCAACCGAUACCAGUAUCGAAAGAUACCCUUGGCAGCGGAAAACCGCUACGUAUUUUUUGAAUG [Ex Theophylline A K4 26] | 204 nM | 288 nM | 276 nM | 243 nM | 237 nM |
| CAUUCGAAAUGCAGUGAUGUUGCAACUGAUACCAGUAUCGAAAGAUACCCUUGGCAGCGGAAAACCGCUACGUUUUUUUUGAAUG [Ex Theophylline A K4 24] | 191 nM | 312 nM | 312 nM | 357 nM | 176 nM |
| CCAACGUGAAAAGGAUAUCGCGAUGUGCACGACUAGUGAUGUUAGGAGAGGCUCGUUGAAUUGUACCGAGAAGGUUUUGAGUGGG [theeternabot_sameState_KL_FMN_B_16] | 227 nM | 160 nM | 240 nM | 231 nM | 196 nM |
| CCAUCGCUAUUCGAUACCAGUCAAGAGGUCUUUGGCCUCUUAAUGGAGUGAUGUUCCUUAGACCCUUGGCAGCGAAUAGUGAUGG [Theophylline B K4 13] | 266 nM | 127 nM | 237 nM | 340 nM | 124 nM |
| CCAUCGCUAUUCGAUACCAGUCAUUUUUUAUUUUUUUUUUUUUUUGGAGUGAUGUUCCAAGACCCUUGGCAGCGAAUAGUGAUGG [whbob_SS_Theo_B_th77] | 91.3 nM | 109 nM | 76.3 nM | 114 nM | 68.1 nM |
| CCAUUCUUUUACGAUACCAGUUUAAUAUAUUUAAUCAAAACCCUCGCCGAGUGAUGUUCGGACCCUUGGCAGCGUUUGCGAGAGG [bjnbstkmullin] | 455 nM | 291 nM | 582 nM | 533 nM | 397 nM |
| CCCAAAAUAUGCAGUGAUGUUGCAACCGAUACCAGUAUCGAAAGAUACCCUUGGCAGCGGAAAACCGCAACGUAAUUUAAAAGGG [Ex Theophylline A K4 16] | 204 nM | 177 nM | 147 nM | 212 nM | 147 nM |
| CCCUCACGAGUGAUGUUCGUAGGGUACAGUCAGGAUAUCAUGCGGUUGAGAAGGGACAGAGAGGGCGGCCACUGGUUGCUCUUCU [Tiatesqu] | 150 nM | 249 nM | 235 nM | 418 nM | 200 nM |
| CCCUCACGAGUGAUGUUCGUAGGGUACAGUCAGGAUAUCAUGCGGUUGAGAAGGGACAGAGAGGGCGGCGGCGGGUUGCUCCUCU [Beeded] | 290 nM | 240 nM | 281 nM | 711 nM | 495 nM |
| CCGAAGAACCAGUGAUGUUGGUUGACUAGACAGGAUAUGAGCAACAUCAGAAGGGUCUGGCUUCGGGAGUGGGUCACGCUGACCU [Iserreanor] | 271 nM | 282 nM | 426 nM | 912 nM | 808 nM |
| CCGCUGUACUGCAAUAAGUGAUGUUUAUUGCAGGAUAUCUGGAAACAGAGAAGGGCAUGUACUCGACUUAGCCACUACAGCGGUU | 144 nM | 57.3 nM | 61.1 nM | 56.9 nM | 65.2 nM |

| Sequence | apparent KD of K4 kissing-loop reporter (input ligand: FMN 200 uM) | apparent KD of K4 kissing-loop reporter (input ligand: arginine 13.2 mM) | apparent KD of K4 kissing-loop reporter (input ligand: none) | apparent KD of K4 kissing-loop reporter [1] | apparent KD of K4 kissing-loop reporter [2] |
| --- | --- | --- | --- | --- | --- |
| CCGGCCCGGCCGGAUACCAGUGCGCCGCUGUGAACUGCGGGCCCAGAGUGAUGUUCGGGACACCCUUGGCAGCCGCCUGGGUCGC [#2 Same State - Theophylline B Attempt #26 (HarryS)] | 358 nM | 380 nM | 444 nM | 325 nM | 341 nM |
| CCGGGCGGCCGAAGGAGCGGGCGGACCCGAGUGAUGUUCGGGUGGCCCGUGAGGGCCGGUGCCCAGGUAGGUCGCGGAUCCGCCC [#2 Same State - Arginine B Attempt #3 (HarryS)] | 155 nM | 120 nM | 140 nM | 116 nM | 135 nM |
| CCGUGGAGUGAUGUUCCACGUACUACGGAUACCAGCUUUGCCAAAGGCCCUUGGCAGCCGCACGGCUCAGUGAUGUUGGGUCGCG [Same State Theophylline A G10] | 167 nM | 153 nM | 172 nM | 156 nM | 148 nM |
| CCUAGUGAUGUUAGGUCGUGCUCCUAUGAUACCAGCGUAGUCACUCGCCCUUGGCAGCAUUCCUUAUAAGGCGGUCGGGCGCGGU [theeternabot_sameState_KL_Theo_A_34] | 218 nM | 104 nM | 193 nM | 158 nM | 154 nM |
| CCUAUCUCAUACGAUACCAGUCAAAAUAUAAUUAACCAGUGAUGUUGGAUUUACCAAGGAGACCCUUGGCAGCGUAUGGGAUAGG [Ex Theophylline B K4 18] | 387 nM | 412 nM | 410 nM | 517 nM | 540 nM |
| CCUAUCUCAUACGAUACCAGUCAACGAGUGAUGUUCGAAUAAAUAAAUUUGCCAUAUAAUGACCCUUGGCAGCGUAUGGGAUAGG [Ex Theophylline B K4 14] | 352 nM | 373 nM | 337 nM | 431 nM | 334 nM |
| CCUAUCUCAUACGAUACCAGUCAAUGAAAUUUUAUCAAUGCCAUCACCGAGUGAUGUUCGGACCCUUGGCAGCGUAUGGGAUAGG [Ex Theophylline B K4 3] | 249 nM | 195 nM | 237 nM | 329 nM | 223 nM |
| CCUAUCUCAUACGAUACCAGUGAAUUUAUAUUUAUUAGCAGUGAUGUUGCAUUCCAAGUACACCCUUGGCAGCGUAUGGGAUAGG [Ex Theophylline B K4 22] | 147 nM | 204 nM | 178 nM | 172 nM | 140 nM |
| CCUAUCUCGUAGGAUACCAGACUAUGAUCUAUGAUCAAUGCCAUCACCGAGUGAUGUUCGGUCCCUUGGCAGCCUAUGAGAUGGG [#13 K4 Theophylline B Exclusion] | 166 nM | 147 nM | 159 nM | 221 nM | 154 nM |
| CCUGCAGCUGUAACCGAGUGAUGCUACGGACGAGGACCGGUACGGCCGCCACUCGCCAGUGAUGUUGGUGUGGGAGGACGUAACU [KL-XTryp-A22] | 200 nM | 140 nM | 190 nM | 178 nM | 199 nM |
| CCUUCUCUUGGUAGUGAUGUUAUCAAGGACAAGGAUAUCAUCUCAAUGAGAAGGUGUCCUUGAUAACAUGGAGGUCUGAAACAGA [Omei KL FMN A Exc C v8] | 65.5 nM | 352 nM | 174 nM | 455 nM | 615 nM |
| CCUUUCAGUUACGAUACCAGUCUAAUAUAUUUGAUCAAUACCCUCGCCGAGUGAUGUUCGGACCCUUGGCAGCGUCUGGGACAGG [gbbymullin] | 526 nM | 428 nM | 525 nM | 418 nM | 337 nM |
| CGACUAGUCUUGCAACCCUAGUCGAUAGACUAGGAUAUCAGGAAACUGAGAAGGAGUCUACUUGCAGUGAUGUUGCAAGAAUAAU [[F]''-[K]'-[F]'-[F1]-[F2]-[K1]-[K2]_Design6] | 163 nM | 176 nM | 170 nM | 168 nM | 156 nM |
| CGAGAAAGAGCGACUGGCGAUCUGUCUGAAGGAGCGGGUGCUAGCCCAGGUAGGUCGCAGACCUUGACGCCAGUGAUGUUGGCGG [Ritiatso] | 220 nM | 180 nM | 208 nM | 252 nM | 177 nM |
| CGCAGUGAUGUUGCGAGCAGCUACAGGGAAGGAGCGCUUUAGUAAGCAGGUAGGUCGCCCACGCAGUGAUGUUGCGUCAUAGGGU [Exclusion Arginine A GF 20] | 158 nM | 123 nM | 117 nM | 100 nM | 111 nM |
| CGCAGUGAUGUUGCGAGUAGCUACAGGGAAGGAGCGUGCUAGAGCACAGGUAGGUCGCCCACGCAGUGAUGUUGUGUCAAAGGGU [Exclusion Arginine A GF 11] | 167 nM | 168 nM | 165 nM | 179 nM | 146 nM |
